Residue numbers refer to the chain shown, from its start.
B1: C128 (antibody, V domains shown)
VH: EVQLLESGGGLVQPGGSLRLSCAASGFTFSTYAMSWVRQAPGKGLEWVSTITGSGRDTYYADSVKGRFTISRDNSKNTLFLQLNSLRAEDAAVYSCANHPLASGDDYYHYYMDVWGKGTTVTVSS
VL: EIVLTQSPGTLSLSPGERATLSCRASQSVNSRQLAWYQQKPGQAPRLLIYGASSRATGIPERFSGSGSGTDFTLTISRLESEDFAVYHCQQYGSSRALTFGGGTKVEIK
B2: C148 (antibody, V domains shown)
VH: EVQLVESGGGLVQPGGSQRLSCAASGFTVSSNYMSWIRQAPGKGLEWVSVIYSGGSAYYVDSVKGRFTISRDNSKNTLYLQMNSLRPEDTAVYYCARIANYMDVWGKGTTVTVSS
VL: EIVMTQSPATLSVSPGERATLSCRASQSVSSHLAWYQQKPGQAPRLLIYGASTRATGIPTRFSGSGSGTEFTLTISSLQSEDFAVYYCQQYNNWPPLTFGGGTKVEIK
B3: C113 (antibody, V domains shown)
VH: QVQLVESGGGVVQPGRSLRLSCAASGFTFSNFGMHWVRQAPGKGLEWVAVIWYDGSNKYYADSVKGRFTISRDNSKNTLYLQMNSLRAEDTAVYYCARGVNPDDILTGVDAFDIWGQGTMVTVSS
VL: DIQMTQSPSTLSASVGDRVTITCRASQSMSSWLAWYQQKPGNAPKLLIYKASSLESGVPSRFSGSGSGTEFTLTISSLQPDDFATYYCQQHNSSPLTFGGGTKVEIK
B4: C207 (antibody, V domains shown)
VH: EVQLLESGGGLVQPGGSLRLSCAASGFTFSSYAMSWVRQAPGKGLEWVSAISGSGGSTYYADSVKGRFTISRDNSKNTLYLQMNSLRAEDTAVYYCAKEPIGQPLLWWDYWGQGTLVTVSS
VL: EIVLTQSPATLSLSPGERATLSCRASQSVSSYLAWYQQKPGQAPRLLIYDASNRATGIPARFSGSGSGTDFTLTISSLEPEDFAVYYCQQRSNWPRGFGQGTKVEIK
B5: C013 (antibody, V domains shown)
VH: QVQLVQSGAEVKKPGSSVKVSCKASGGTFSSYAISWVRQAPGQGLEWMGGIIPIFGTANYAQKFQGRVTITADESTSTAYMELSSLRSEDTAVYYCARGNRLLYCSSTSCYLDAVRQGYYYYYYMDVWGKGTTVTVSS
VL: B4 VL with R96L, G97T, Q100G
B6: C118 (antibody, V domains shown)
VH: QVQLVESGGGVVQPGRSLRLSCAASGFTFSNYAMHWVRQAPGKGLEWVAVISYDGSNKYYADSVKGRFTISRDNSKNTLYLQMNSLRAEDTAIYYCASGYTGYDYFVRGDYYGLDVWGQGTTVTVSS
VL: QPVLTQSPSASASLGASVKLTCTLSSGHSSYAIAWHQQQPEKGPRYLMKLNTDGSHSKGDGIPDRFSGSSSGAERYLTISSLQSEDEADYYCQTWGTGILVFGGGTKLTVL
B7: C002 (antibody, V domains shown)
VH: EVQLVESGGGVVQPGRSLRLSCAASGFTFSIYGMHWVRQAPGKGLEWVAVISYDGSNKYYADSVKGRFTISRDNSKNTLYLQMNSLRAEDTAVYYCAKEGRPSDIVVVVAFDYWGQGTLVTVSS
VL: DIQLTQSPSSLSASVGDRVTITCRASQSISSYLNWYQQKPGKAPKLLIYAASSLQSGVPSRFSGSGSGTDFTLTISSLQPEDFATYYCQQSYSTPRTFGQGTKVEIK
B8: C133 (antibody, V domains shown)
VH: QVQLVESGGGVVQPGRSLRLSCAASGFTFSSYAMHWVRQAPGKGLEWVAVILYDGSNKYYADSVKGRFTISRDNSKNTLYLQMNSLRAEDTAVYYCARDSDVDTSMVTWFDYWGQGTLVTVSS
VL: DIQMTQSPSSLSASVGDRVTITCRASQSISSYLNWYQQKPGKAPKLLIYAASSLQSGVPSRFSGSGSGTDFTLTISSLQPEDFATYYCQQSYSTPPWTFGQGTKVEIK
B9: C208 (antibody, V domains shown)
VH: EVQLVQSGAEVKKPGESLKISCKGSGYSFTSYWIGWVRQMPGKGLEWMGIIYPGDSDTRYSPSFQGQVTISADKSISTAYLKWSSLKASDSAMYYCARGPNLQNWFDPWGQGTLVTVSS
VL: EIVLTQSPGTLSLSPGERATLSCRASQSVSGSYLAWYQQRPGQAPRLLIYGASSRATGIPDRFSGSGSGTDFTLTISRLEPEDFAVYYCQQYGSSLTFGGGTKVEIK
B10: C214 (antibody, V domains shown)
VH: QVQLVESGGGVVQPGRSLRLSCAASGFTFSSYGMHWVRQAPGKGLEWVAAIWYDGSNKHYADSVKGRFTISRDNSKNTLYLQMNSLRAEDTAVYYCARDVGRVTTWFDPWGQGTLVTVSS
VL: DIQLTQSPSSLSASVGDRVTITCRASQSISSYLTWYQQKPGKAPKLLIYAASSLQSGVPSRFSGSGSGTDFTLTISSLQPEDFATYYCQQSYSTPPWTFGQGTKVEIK
B11: C114 (antibody, V domains shown)
VH: QVQLVESGGGLIQPGGSLKLSCVVSGFTVSKNYISWVRQAPGKGLEWVSVIFAGGSTFYADSVKGRFAISRDNSNNTLFLQMNSLRVEDTAIYYCARGDGELFFDQWGQGTLVTVSS
VL: QSVLTQPPSVSGAPGQRVTISCTGTSSNIGAGYDVHWYQQLPGRAPKVLISGNNIRPSEVPDRFSGSRSGTSASLAITSLQPEDEAQYYCQSYDSSLYAVFGGGTKLTVL
B12: C016 (antibody, V domains shown)
VH: EVQLVESGGGVVQPGRSLRLSCAASGFTFSRYGMHWVRQAPGKGLEWVAVISYDGSNKYYADSVKGRFTISRDNSKNTLYLQMNSLRAEDTAVYYCAKVTAPYCSGGSCYGGNFDYWGQGTLVTVSS
VL: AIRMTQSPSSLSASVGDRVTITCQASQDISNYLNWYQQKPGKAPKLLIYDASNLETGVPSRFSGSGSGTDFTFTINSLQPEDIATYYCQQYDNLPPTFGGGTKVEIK
B13: C139 (antibody, V domains shown)
VH: EVQLVESGGGVVQPGRSLRLSCAASGFTFSSYAMHWVRQAPGKGLEWVAVISYDGSNKYSADSVKGRFTISRDNSKNTLYLQMNSLRAEDTAVYYCAKGGAYSYYYYMDVWGKGTTVTVSS
VL: not shown
B14: C204 (antibody, V domains shown)
VH: EVQLLESGGGLEQPGGSLRLSCAASGFTFSTYAMSWVRQAPGKGLEWVSAISGSGAGTFYADSVKGRFTISRDNSKNTLYLQMNSLRAEDTAVYYCARESDCGSTSCYQVGWFDPWGQGTLVTVSS
VL: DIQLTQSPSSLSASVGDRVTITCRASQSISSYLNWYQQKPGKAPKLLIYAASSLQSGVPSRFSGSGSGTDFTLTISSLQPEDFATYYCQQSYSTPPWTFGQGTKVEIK
B15: C134 (antibody, V domains shown)
VH: EVQLLESGGGLVQPGGSLRLSCAASGFTFSNYAMSWVRQAPGKGLEWVSAISGSDGSTYYAGSVKGRFTISRDNSKNTLYLQMNSLRAEDTAVYYCAKDPLITGPTYQYFHYWGQGTLVTVSS
VL: SYELTQPPSVSVAPGKTARITCGGNNIGSKSVHWYQQKPGQAPVLVIYYDSDRPSGIPERFSGSNSGNTATLTISRVEAGDEAEYHCQVWDSSSDRPGVVFGGGTKLTVL
B16: C124 (antibody, V domains shown)
VH: EVQLVESGGGLVQPGGSLRLSCAASGFTFSGYSMNWVRQAPGKGPEWVSYISRSSSTIYYADSVKGRFTISRDNAKNSLYLQMNSLRDEDTAVYYCAREGARVGATYDTYYFDYWGQGTLVTVSS
VL: EIVLTQSPATLSLSPGERATLSCRASQSFSSYLAWYQQKPGQAPRLLIYDASNRATGIPARFSGSGSGTDFTLTISSLEPEDFAVYYCQQRNNWPPEWTFGQGTKVEIK
B17: C145 (antibody, V domains shown)
VH: EVQLVESGGGLIQPGGSLRLSCAASGFSVSSNYMSWVRQAPGKGLEWVSVIYSGGSTYYADSVKGRFTISRDNSKNTLYLQMNSLRAEDTAVYYCAREGEVEGYYDFWSGYSRDRYYFDYWGQGTLVTVSS
VL: QSALTQPASVSGSPGQSITISCTGTSSDVGGYNYVSWYQQHPGKAPKLMIYDVSNRPSGVSNRFSGSKSGNTASLTISGLQAEDEADYYCSSYTSSTTRVFGTGTRVTVL
B18: C155 (antibody, V domains shown)
VH: EVQLVESGGGLIQPGGSLRLSCAASGFIVSSNYMSWVRQAPGKGLEWVSVIYSGGSTFYADSVKGRFTISRDNSKNTLYLQMNSLRAEDTAVYYCARDFGEFYFDYWGQGTLVTVSS
VL: EIVMTQSPATLSVSPGERATLSCRASQSVSSNLAWYQQKPGQAPRLLIYGASTRATAIPARFSGSGSGTEFTLTISSLQSEDFAVYYCQQYNNWPRTFGQGTKVEIK
B19: C120 (antibody, V domains shown)
VH: EVQLVESGGGLIQPGGSLRLSCAASGFTVSSNYMTWVRQAPGKGLEWVSLIYPGGSTYYADSVKGRFTISRDNSKNTLYLQMNSLRAEDTAVYYCAREGMGMAAAGTWGQGTLVTVSS
VL: AIRMTQSPSSLSASVGDTVTITCQASQDISKYLNWYQQKPGKAPKLLIYDASNLETGVPSRFSGSGSGTDFTFTISSLQPEDIATYYCQQYDNLPQTFGGGTKVEIK
B20: C004 (antibody, V domains shown)
VH: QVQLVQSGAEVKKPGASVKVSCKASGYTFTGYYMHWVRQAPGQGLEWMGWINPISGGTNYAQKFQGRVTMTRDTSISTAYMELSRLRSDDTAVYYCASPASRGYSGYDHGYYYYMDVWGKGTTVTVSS
VL: B19 VL with T18R, K31N, Q96I, G100Q, K103R, V104L
B21: C151 (antibody, V domains shown)
VH: EVQLVESGGGLVKPGGSLRLSCAASGFTFSSYNMNWVRQAPGKGLEWVSCISSSSSYIYYADSVKGRFTISRDNAKNSLYLQMNSLRAEDTAVYYCARERGYDGGKTPPFLGGQGTLVTVSS
VL: NFMLTQPHSVSESPGKTVTISCTGSSGSIASNYVQWYQQRPGSAPTTVIYEDNQRPSGVPDRFSGSIDSSSNSASLTISGLKTEDEADYYCQSYDSSNYWVFGGGTKLTVL
B22: C017 (antibody, V domains shown)
VH: EVQLVESGGGLVQPGRSLRLSCAASGFTFDDYAMHWVRQAPGKGLEWVSGISWNSGTIGYADSVKGRFTISRDNAKNSLYLQMNSLRAEDTAFYYCAKAGVRGIAAAGPDLNFDHWGQGTLVTVSS
VL: EIVLTQSPATLSLSPGERATLSCRASQSVSSYLAWYQQKPGQAPRLLIYDASNRATGIPARFSGSGSGTDFTLTISSLEPEDFAVYYCQQRITFGQGTRLEIK
B23: C029 (antibody, V domains shown)
VH: QVQLQESGPGLVKPSQTLSLTCTVSGGSISSGGYYWSWIRQHPGKGLEWIGYIYYSGSTYYNPSLKSRVTISVDTSKNQFSLKLSSVTAADTAVYYCARTMYYYDSSGSFDYWGQGTLVTVSS
VL: not shown

What follows are binders tested against SARS-CoV RBD (SARS-CoV, UniProt P59594) (assay: ELISA).
B1 was tested, and the EC50 was > 1000 ng/mL.
In the case of B2, the EC50 is reported as > 1000 ng/mL.
B3 was tested, and the EC50 was > 1000 ng/mL.
With B4 the EC50 was > 1000 ng/mL.
B5 was tested, and the EC50 was > 1000 ng/mL.
Binder B6 has an EC50 of 3.82 ng/mL.
In the case of B7, the EC50 is reported as > 1000 ng/mL.
In the case of B8, the EC50 is reported as > 1000 ng/mL.
For B9, the EC50 was > 1000 ng/mL.
For B10, the EC50 was > 1000 ng/mL.
In the case of B11, the EC50 is reported as > 1000 ng/mL.
With B12 the EC50 was > 1000 ng/mL.
B13 was tested, and the EC50 was > 1000 ng/mL.
Binder B14 has an EC50 of 9.41 ng/mL.
For B15, the EC50 was > 1000 ng/mL.
In the case of B16, the EC50 is reported as > 1000 ng/mL.
In the case of B17, the EC50 is reported as > 1000 ng/mL.
In the case of B18, the EC50 is reported as > 1000 ng/mL.
For B19, the EC50 was > 1000 ng/mL.
In the case of B20, the EC50 is reported as > 1000 ng/mL.
With B21 the EC50 was > 1000 ng/mL.
In the case of B22, the EC50 is reported as > 1000 ng/mL.
In the case of B23, the EC50 is reported as > 1000 ng/mL.

The binders below were run against SARS-CoV-2 RBD (SARS-CoV-2, UniProt P0DTC2) (assay: ELISA).
Work on B1 yielded an EC50 of 1.95 ng/mL.
With B2 the EC50 was 64.7 ng/mL.
B3 gave an EC50 of 6.93 ng/mL.
For B4, the EC50 was 1.87 ng/mL.
B5 gave an EC50 of 2.59 ng/mL.
In the case of B6, the EC50 is reported as 3.45 ng/mL.
Work on B7 yielded an EC50 of 3.14 ng/mL.
With B8 the EC50 was 1.98 ng/mL.
In the case of B9, the EC50 is reported as > 1000 ng/mL.
B10 gave an EC50 of 5.75 ng/mL.
B11 gave an EC50 of 9.51 ng/mL.
B12 gave an EC50 of 7.41 ng/mL.
B13 showed an EC50 of 1.89 ng/mL.
B14 showed an EC50 of 3.73 ng/mL.
In the case of B15, the EC50 is reported as 1.57 ng/mL.
In the case of B16, the EC50 is reported as 2.23 ng/mL.
B17 gave an EC50 of 3.86 ng/mL.
B18 was tested, and the EC50 was 3.3 ng/mL.
With B19 the EC50 was 1.41 ng/mL.
B20 gave an EC50 of 2.39 ng/mL.
B21 was tested, and the EC50 was 4.3 ng/mL.
Binder B22 has an EC50 of 1.63 ng/mL.
B23 gave an EC50 of 4.13 ng/mL.
